{
  "source": "patent US20250092108A1",
  "about": "(published 2025)",
  "binders": {"B1": {"name": "24638 (Fc fusion)", "chain": "APTSSSTKKTQLQLEHLLLDLQMILNGISNHKNPRLARMLTFKFYMPEKATELKHLQCLEEELKPLEEALRLAPSKNFHLRPRDLISDVNVIVLELKGSETTFMCEYADETATIVEFLNRWITFSQSIISTLT"}, "B2": {"name": "XENP14277 (prior art IL-2 variant, mutant 2-4 with Q126T as described in WO 2009/061853, without R38L) (ligand)", "chain": "APTSSSTKKTQLQLEHLLLDLQMILNGISNHKNPRLARMLTFKFYMPEKATELKHLQCLEEELKPLEEALRLAPSKNFHLRPRDLISDVNVIVLELKGSETTFMCEYADETATIVEFLNRWITFSTSIISTLTHHHHHHHH"}, "B3": {"name": "XENP14381 (prior art IL-2 variant, mutant 2-4 with Q126T, with R38L) (ligand)", "chain": "B2 chain with R38L"}, "B4": {"name": "CD25 (receptor)", "chain": "ELCDDDPPEIPHATFKAMAYKEGTMLNCECKRGFRRIKSGSLYMLCTGNSSHSSWDNQCQCTSSATRNTTKQVTPQPEEQKERKTTEMQSPMQPVDQASLPGHCREPPPWENEATERIYHFVVGQMVYYQCVQGYRALHRGPAESVCKMTHGKTRWTQPQLICTGEMETSQFPGEEKPQASPEGRPESETSC"}, "B5": {"name": "XENP26105 (Fc fusion)", "chain 1": "EPKSSDKTHTCPPCPAPPVAGPSVFLFPPKPKDTLMISRTPEVTCVVVDVKHEDPEVKFNWYVDGVEVHNAKTKPREEEYNSTYRVVSVLTVLHQDWLNGKEYKCKVSNKALPAPIEKTISKAKGQPREPQVYTLPPSREEMTKNQVSLTCDVSGFYPSDIAVEWESDGQPENNYKTTPPVLDSDGSFFLYSKLTVDKSRWEQGDVFSCSVMHEALHNHYTQKSLSLSPGK", "chain 2": "APASSSTKKTQLQLEHLLLNLQMILNGINNYKNPKLRRMLTFKFYMPKKATELKHLQCLEEELKPLEEVLNLAQSKNFHLRPRDLISNINVIVLELKGSETTFMCEYADETATIVEFLNRWITFSQSIISTLTEPKSSDKTHTCPPCPAPPVAGPSVFLFPPKPKDTLMISRTPEVTCVVVDVKHEDPEVKFNWYVDGVEVHNAKTKPREEQYNSTYRVVSVLTVLHQDWLNGKEYKCKVSNKALPAPIEKTISKAKGQPREPQVYTLPPSREQMTKNQVKLTCLVKGFYPSDIAVEWESNGQPENNYKTTPPVLDSDGSFFLYSKLTVDKSRWQQGNVFSCSVMHEALHNHYTQKSLSLSPGK"}},
  "key": {"[1]": {"target": "B4", "assay": "Octet"}, "[2]": {"target": "CD122:CD132", "assay": "Octet"}, "[3]": {"target": "T1, human CD25 (IL-2Rα) (human, UniProt P01589 22-213)", "T1 chain": "B4 chain", "assay": "Biacore; pH 6.0"}, "[4]": {"target": "T1, human CD25 (IL-2Rα)", "assay": "Biacore; pH 7.4"}, "[5]": {"target": "24728", "assay": "Octet"}, "[6]": {"target": "24640", "assay": "Octet"}, "[7]": {"target": "24725", "assay": "Octet"}, "[8]": {"target": "24732", "assay": "Octet"}, "[9]": {"target": "24641", "assay": "Octet"}, "[10]": {"target": "24636", "assay": "Octet"}, "[11]": {"target": "24729", "assay": "Octet"}, "[12]": {"target": "24639", "assay": "Octet"}, "[13]": {"target": "24643", "assay": "Octet"}, "[14]": {"target": "XENP26089", "assay": "Octet"}, "[15]": {"target": "XENP26088", "assay": "Octet"}, "[16]": {"target": "XENP26086", "assay": "Octet"}, "[17]": {"target": "XENP26093", "assay": "Octet"}, "[18]": {"target": "XENP26104", "assay": "Octet"}, "[19]": {"target": "XENP26096", "assay": "Octet"}, "[20]": {"target": "XENP26108", "assay": "Octet"}, "[21]": {"target": "XENP26092", "assay": "Octet"}, "[22]": {"target": "CD122:CD132", "assay": "Octet", "remark": "listed apart in the source"}, "[23]": {"target": "T1, human CD25 (IL-2Rα)", "assay": "Octet"}},
  "note": "Positions count from the first letter of the chain named. In names and notes the source's numbering stands. Where two headings read alike, the source gives them in different places.",
  "data": [
    {"binder": "B1", "values": [
      {"measurement": "Kd", "setting": "[1]", "value": 1.33, "unit": "nM"},
      {"measurement": "Kd", "setting": "[2]", "value": 146, "unit": "nM"}
    ]},
    {"binder": "B2", "values": [
      {"measurement": "Kd", "setting": "[3]", "value": 190, "unit": "nM"},
      {"measurement": "Kd", "setting": "[4]", "value": 2, "unit": "nM"}
    ]},
    {"binder": "B3", "values": [
      {"measurement": "Kd", "setting": "[3]", "value": 16.8, "unit": "nM"},
      {"measurement": "Kd", "setting": "[4]", "value": 9.4, "unit": "nM"}
    ]},
    {"binder": "B4", "values": [
      {"measurement": "Kd", "setting": "[5]", "value": 41.8, "unit": "nM"},
      {"measurement": "Kd", "setting": "[6]", "value": 1.14, "unit": "nM"},
      {"measurement": "Kd", "setting": "[7]", "value": 19.6, "unit": "nM"},
      {"measurement": "Kd", "setting": "[8]", "value": 91.2, "unit": "nM"},
      {"measurement": "Kd", "setting": "[9]", "value": 12.7, "unit": "nM"},
      {"measurement": "Kd", "setting": "[10]", "value": 14.5, "unit": "nM"},
      {"measurement": "Kd", "setting": "[11]", "value": 25.5, "unit": "nM"},
      {"measurement": "Kd", "setting": "[12]", "value": 8.04, "unit": "nM"},
      {"measurement": "Kd", "setting": "[13]", "value": 26.6, "unit": "nM"},
      {"measurement": "Kd", "setting": "[14]", "value": 14.4, "unit": "nM"},
      {"measurement": "Kd", "setting": "[15]", "value": 16.6, "unit": "nM"},
      {"measurement": "Kd", "setting": "[16]", "value": 16.9, "unit": "nM"},
      {"measurement": "Kd", "setting": "[17]", "value": 21.3, "unit": "nM"},
      {"measurement": "Kd", "setting": "[18]", "value": 14.7, "unit": "nM"},
      {"measurement": "Kd", "setting": "[19]", "value": 39.2, "unit": "nM"},
      {"measurement": "Kd", "setting": "[20]", "value": 27.7, "unit": "nM"},
      {"measurement": "Kd", "setting": "[21]", "value": 26.4, "unit": "nM"}
    ]},
    {"binder": "B5", "values": [
      {"measurement": "Kd", "setting": "[22]", "value": 36.4, "unit": "nM"},
      {"measurement": "Kd", "setting": "[23]", "value": 14.1, "unit": "nM"}
    ]}
  ]
}
